Tested on: transgenic maize R0 plants (double copy events)
Test: R0 plant greenhouse glyphosate spray: vegetative tolerance and induced male sterility
Assay type: in vivo
Settings: for % Vegetative Tolerant / % Vegetative Tolerance: glyphosate 0.75 lb ae/acre at V5 then V8; for % Vegetative Tolerant: <=10% injury 7 days after V5 spray
Protocol: Transformation vectors containing the recombinant DNA constructs were used with an Agrobacterium-based transformation method and maize immature embryos and techniques known in the art. Leaf samples of R0 plants were collected and molecular analysis was conducted to select transgenic plants containing a single copy (one insertion) or a double copy (two independent insertions) of the recombinant DNA construct and no presence of vector backbone. Single copy events were not sprayed with glyphosate and were selfed and advanced for R1 seed collection, while double copy events were used for R0 glyphosate spray to assess vegetative tolerance and induced male sterility. Transgenic plants that were not sprayed with glyphosate had normal anthesis, normal pollen shedding, and normal pollen development as determined by Alexandar staining and microscopic observation.
Double copy R0 events were used in testing to approximate a single copy homozygous event. Plants were sprayed with glyphosate at two different growth stages to determine if the presence of the mts-siRNA target element in the recombinant DNA construct provided vegetative glyphosate tolerance and glyphosate-induced tassel sterility. The plants were sprayed in a greenhouse with 1× glyphosate (0.75 lb ae/acre) applied at the V5 stage followed by 1× glyphosate (0.75 lb ae/acre) applied at the V8 stage. Seven days after the V5 stage glyphosate application, plants were scored for vegetative injury with scores of ≦10% injury considered as showing vegetative glyphosate tolerance (% Vegetative Tolerant). Male sterility was measured in two ways. […] Anthers were then collected and dissected to microscopically observe pollen development. Anthers for each event were tested for no viable pollen grains produced as detected by Alexandar staining under microscopic observation and scored as not producing any viable pollen (% No Pollen). In plants not sprayed with glyphosate, tassel development, anther extrusion, and pollen development were normal.
The mts-siRNA target elements were tested in multiple transformation vector configurations. Each transformation vector was used to produce multiple R0 plants with each R0 plant representing a unique transgenic event made using the same transformation vector. Data for three different transformation vector configurations are provided as Tables 11 and 12.

[1] = vector configuration A, no anther extrusion up to S90+12 after V8 glyphosate
[2] = vector configuration A, no viable pollen by Alexandar staining

| Molecule | % Completely Male-sterile [1] | % No Pollen [2] [%] | % Completely Male-sterile (vector configuration B) [%] | % No Pollen (vector configuration B) [%] | % Vegetative Tolerance (vector configuration B) [%] | % Completely Male-sterile (vector configuration C) [%] | % No Pollen (vector configuration C) [%] | % Vegetative Tolerance (vector configuration C) [%] | also measured |
| --- | --- | --- | --- | --- | --- | --- | --- | --- | --- |
| SEQ ID NO: 16: recombinant mts-siRNA target element sequence (nucleic acid) DNA: GACAACAAGCACCTTCTTGCCTTGCAGTATTGGTGGTGACGACATCCTTGGTGTGCATGCACTGGTGAGTCACTGTTGTACGTGATAACTTCTATGCTGGCTGTGATTGCTAGTTGAAGAAAAGAATAGATATGGTGACATCAAGTTTCCACTGCGTGACGCCAACGTGCATATCGCCATCCTCTGCTACGAGGGAATGTCATTGGTCGATGAGATGAGGGTGAATCGGATGTTGAGGTGGCACGATAGTTAAGGCGCAAGGGT | 50% | 0 |  |  |  |  |  |  | % Vegetative Tolerant (vector configuration A): 80% |
| SEQ ID NO: 9: reverse complement of mts-siRNA target element, 99% identity to positions 191 to 490 of cDNA SEQ ID NO: 22 (nucleic acid, Zea mays) DNA: GGACAACAAGCACCTTCTTGCCTTGCAAGGCCTCCCTTCCCTATGGTAGCCACTTGAGTGGATGACTTCACCTTAAAGCTATTGATTCCCTAAGTGCCAGACATAATAGGCTATACATTCTCTCTGGTGGCAACAATGAGCCATTTTGGTTGGTGTGGTAGTCTATTATTGAGTTTTTTTTGGCACCGTACTCCCATGGAGAGTAGAAGACAAACTCTTCACCGTTGTAGTCGTTGATGGTATTGGTGGTGACGACATCCTTGGTGTGCATGCACTGGTGAGTCACTGTTGTACTCGGCG |  | 0 |  |  |  |  |  |  | % Vegetative Tolerant (vector configuration A, listed as 9): 100%; % Completely Male-sterile (vector configuration A, no anther extrusion up to S90+12 after V8 glyphosate, listed as 9): 40% |
| SEQ ID NO: 12: recombinant mts-siRNA target element sequence (nucleic acid) DNA: AGACGACGACCGTGCATGGTGATGAATCACAGACGACGAACACGCATGTCGCATCGCCGTCCTCTCACACCATAGAACTGCAAATGTCCGCTCTTCACCGTTGTAGTCGTTGATGGTATTGGTGGTGACGACATCCTTGGTGTGCATGCACTGGTGAGTCACTGTTGTAC |  |  | 50 | 20 | 100 | 23 | 0 | 87 |  |
| SEQ ID NO: 2: mts-siRNA target element, single nucleotide change (T69A) relative to SEQ ID NO: 1 (nucleic acid) DNA: AGACGACGACCGTGCATGGTGATGAATCACAGACGACGAACACGCATGTCGCATCGCCGTCCTCTTTGAATCACACAGCATCACCTTCTTCGCTCTACTACTCCCCCGAGCAATCACCGACCAATAACACCAACCATCAACCTCCCCCGTCGCCGCCGCCTTCACCGTCCTCCCCTCACACCATAGAACTGCAAATGTCCG |  | 82 |  |  |  |  |  |  | tassel male sterility and pollen by Alexandar stain (double copy R0 events with SEQ ID NO: 2, glyphosate 0.75 lb ae/acre at V5 then V8): very few aborted pollen grains or no pollen grains were detected; % Vegetative Tolerant (vector configuration A, listed as 2): 100%; % Completely Male-sterile (vector configuration A, no anther extrusion up to S90+12 after V8 glyphosate, listed as 2): 82% |
| SEQ ID NO: 14: recombinant mts-siRNA target element sequence (nucleic acid, chemistry not fully specified; the letters are possibly those of the target site) DNA: CCCAACGTGCATATCGCCATCCTCTGCTACGAGGGAATGTCATTGGTCGATGAGATGAGGGTGAATCGGATGTTGAGGTGGCACGATAGTTAAGGCGCAAGGGTAT | none | 0 |  |  |  |  |  |  | % Vegetative Tolerant (vector configuration A, listed as 14): 90%; % Completely Male-sterile (vector configuration A, no anther extrusion up to S90+12 after V8 glyphosate, listed as 14): 0% |
| SEQ ID NO: 10: recombinant mts-siRNA target element sequence (nucleic acid, expressed or natural sequence; target site or template, no part of the molecule) DNA: AGACGACGACCGTGCATGGTGATGAATCACAGACGACGAACACGCATGTCGCATCGCCGTCCTCTCACACCATAGAACTGCAAATGTCCG |  |  | 55 | 22 | 90 | 100 | 0 | 83 |  |
| SEQ ID NO: 11: recombinant mts-siRNA target element sequence (nucleic acid) DNA: AGACGACGACCGTGCATGGTGATGAATCACAGACGACGAACACGCATGTCGCATCGCCGTCCTCTCACACCATAGAACTGCAAATGTCCGACAACAAGCACCTTCTTGCCTTGCAGTATTGGTGGTGACGACATCCTTGGTGTGCATGCACTGGTGAGTCACTGT |  |  | 50 | 0 | 100 | 80 | 0 | 55 |  |
| SEQ ID NO: 15: recombinant mts-siRNA target element sequence (nucleic acid, chemistry not fully specified; the letters are possibly those of the target site) DNA: TCGTCCAAACGTGACCGTGTGGCTAGAAGCAGAGGATGGCGATATGCACGTTATGCTTTCCTAGACTCTCACTGTAGTGG | none | 0 |  |  |  |  |  |  | % Vegetative Tolerant (vector configuration A, listed as 15): 90%; % Completely Male-sterile (vector configuration A, no anther extrusion up to S90+12 after V8 glyphosate, listed as 15): 0% |
| SEQ ID NO: 3: mts-siRNA target element, nucleotide positions 239 to 433 of cDNA SEQ ID NO: 18 (nucleic acid, Zea mays) DNA: TCTAGCCACACGGTCACGTTTGGACGACCAATAATAGGCTTGCAACCCTTCAAATTGTGTCCATCAGCTTCCCAACGTGCATATCGCCATCCTCTGCTTCGTGTCCCATGTCACCACCCCCACTCTTCCTCTTTACATGCAATGCAAATAAAGCAGATCCAACGTGGATGAGGGTGAATCGGATGTTGAGGTGGG | 10% | 0 |  |  |  |  |  |  | % Vegetative Tolerant (vector configuration A): 90% |
